Test results reported in the NTF2 design screens of Basanta et al. (2020).

Test: protease stability score; higher = more stable; yeast display proteolysis, trypsin and chymotrypsin;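 also: relative to predicted unfolded state with 0 unfolded-like and 1 meaning tenfold more protease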

Point of comparison: “DEEERIAKVMLKIVEKDLHTGNFETLFHLMDPHMRLEYGDKHHHGREEAYRELLEIWEELGANHYHITHRHVRLIGDKIRIHIYSIVRFNGREHHLHIDLIVTKIDGRWVMHRIIIELK”, protease stability score 0.723. Against it:
- SEEEERLRRFFEEFIKWHVTGDEEHLERLMDPNAKFIVNGVESHGWENTSRHLKELRIHELNIRRVEIVNGRIHISGLAKGEFNGRHRETTVHIHIVVIDGRVKEMSIEVR — higher, 2.48
- SEMEDIAEEWAELILHLWHTGDEDKLWKLADPNTREHVNGRNLHGREEIVRIIVHEMVEMRIKFRPHDVRVQGDKVIIDGIKEIHIDGKEIRIRIEIVIVVINGRYHSSELTVH — higher, 1.04
- SHEEEMHLHVAELMLKLLLTGNEEELAKLMDPNVQTEIDGRSYHGRELIIDLIRHSREKLGVNHSELKRSHVRLVDGRLHVHLDSRFLVNGVWLDVEIEMFVLKINGKWVIESVHVRVR — lower, 0.718
- SEHDELVKRNLEEMIRAAETGDEEKLRQLMDPHVKLEVNGREFVGREHWERFFREVIHRFGVTRIEIILHRIHDIDGRIYVDGTEVYGDYFERSLWISLKVNGKWVITHQHIH — lower, 0.336
- DDVEKDARWLVDELIHLLETGDEDTLLKLADPNTRIEIGDFHFHGRRDLKRILHEMRVKLDHLRIEHLDAQGEWIYIQFHYHQTINVNGRVVHEQRRVELESIKINGRWTIHFFKVK — higher, 1.28
- SEDEEIVHLAIEMYLESIRTGDWKLWEKLIDPDVRLEVNGVEFHGMEEFLKFEREINKRVDHVEVRLRDTRLVNGQVNLNTELINRYDGRTIITETTYVAIKVDGKWYIHEYRIE — higher, 1.14
- SEEEERSERSLKHLLKTELTGNEEEFWRLADPNAKIEVIIDGVRISDHGREAIIRLWRFMGFDHLIFRHIHVHIQGDKMDVHIQGESRIGDKEMRTTIFLHVIKINGRWINHTLIIEQK — higher, 1.24
- DHLRELMERVLERYRRALETGNFEELRNLADPHYRVDIDGQELIGMDEYKRHLIKIKNLKIHHVEIKDVKVQGDKAHVDQEDDIEFDGRRMRLRLHYIWLKFNGRWLLHSMEVE — higher, 1.85
- SEEEHDVEFVRRLQEEVWHTGDEDKLEELLDPDARAHVNGVTYHGREFVHFFYKRVDHVHHYQIEETRVVGDKLHLISRTDLVINGQRVKTELRWNITKVNGKWRVTEVRID — higher, 1.06
- DEWDNAREELKRMLFKLLETGDEDSFKRLIDPDARQHIDGQEIHGRERVYEIFYRIKNMTVHHIEDKHYEIVNGQIHSDVRIDMIVNGKRITLNIRVVMIKIDGKWYLHSEKIS — higher, 1.6
- SEDEEVAERFLRLLIESLMTGDEDSFKSLLDPNDRLHIGEKHNHGRNLIVELLTRFGIELEHIELKSVEVINGRIHVNTHIRFIQGDKHIETEMRLNVDKIDGRWRLRSMHID — higher, 1.98
- DEEEELAHKATEHWLHLVRTGDEEKISSQADPNTKVEIRQGDKRIDSHGMEHFSELLRKLIEDYGVNHIHVNIVRLIDGRVHVNSLVHVGDKEIKIHIWADKVNGRWIHRNMHVHVG — lower, 0.547
- DEKEELTRKLLELLLLAWSTGDEEVLMMLADPDVRITQGDKITHGRDELRREIEEIWRKFGADHIEVEPEDSRVQGDKVNNRTTLWLRINGRTIDFNVHVIIVIVNGVIHSMRFEIR — higher, 2.35
- DEEHEHLKELARLILKWWYTGDEQHMLELADPNVRSHVNGVHLVGREEMMKVWVEVLEFLGADHVEDKRSSIQGDKTILHTSHHVNGKEIEVDVDIRIVDGKDHTLEFRIK — higher, 1.44
- REEEKKLEDIVKKLLEAWETGDEDFLIEMADPDTRVEFEAENHHEHRVGWENMIHWTHEVHRHLGVKHLMIDSSTIIGEKVHIDGTMNINGREVKIRIIIEIVDGRVKKIKIIVH — higher, 1.71
- SEDHEATHLIVELLERALKTGNERLWKDLFDPNVRIDINGKYFHGREEYVHFFKEWRFHDSRVHVHEVRVNEHELHIHGEVESHVTYNGQHRNLRLETTLFVIKVNGRWLFRHIEVR — higher, 1.5
- SEEETFTEIAVKLLMHLWNTGDENELMRNFDPNARMDINGQEYHGREDIVRRLDEFKKRLGVERVHFELNDIRPVNGRADVDGIVIFNGQKLRVRHIVWKINGRWYLEEFEVR — higher, 1.44
- SEEEHWVREFEEAVRHDAETGDENSISEFLDPNVRVDINGKELHGRELMDEMIRHFLERYDHIRIHIHDNRLIDGRVEMDIRLYFIQGEKHMEIDSERFIFKVDGKWRLEEVRIK — lower, 0.3
- SHDELLATRLVEEVWELWLTGDEDRTAELLDPDVRFFFIVGDKTHTFHGRDKIRKLMHDLRNHWRIHHIRIERFRVQGEYSEFDVRSHGRYNGVEEETTVHLSLDVVNGKVKRIIVHIR — higher, 1.6
